# Results published in patent publication EP0629133B1, “PEPTIDE-METAL ION PHARMACEUTICAL APPLICATIONS” (Rhomed, Incorporated, priority 1992, dated 1993).
# Read-outs that look alike come from different tables or passages of the source. Ends that are not written are not given here.
# Key:
# [1] = set-up: species or system tight-skin (Tsk) mouse; details: mouse, in vivo
# Excerpt: Biodistribution was also studied in a lung disease model which used tight-skin mice with genetic emphysema. The tight-skin (Tsk) mouse is a genetic mutant caused by a dominant gene deficiency of serum anti-elastase. Heterozygous (Tsk/+) animals show multiple skin connective tissue abnormalities resembling scleroderma as well as an increased growth of cartilage, bone, and small tendons with hyperplasia of the tendon sheaths. The Tsk trait is associated with progressive pulmonary emphysema and development of right ventricular hypertrophy, as well as with lung collagen changes. These mice, as well as genetic control mice (pallid), were obtained from The Jackson Laboratory (Bar Harbor, ME). The relative localisation of ^99mTc-IKVAV-peptide of Example 4 at all time points examined (10, 30, and 120 minutes post-injection), was decreased in the lungs of animals with emphysema relative to paired control animals.
# [2] = set-up: species or system adult female Fischer 344 rats; details: rat, in vivo
# Procedure: The clearance rates of the ^99mTc-IKVAV-containing peptide of Example 4 was evaluated in adult female Fischer 344 rats at 2 hours after injection. Each experimental group was composed of three animals. Each animal was anaesthetised with ketamine and the bile duct and bladder were cannulated. Blood was collected over various periods of time from the jugular vein.
# [3] = freshly radiolabelled
# [4] = set-up: species or system mice; details: mouse, in vivo
# Procedure: Some studies involved pre-incubation of the ^99mTc-IKVAV-containing peptide in whole blood prior to injection and determination of biodistribution. In these studies, whole human blood was obtained from a healthy adult male donor and collected into Vacutainer tubes containing EDTA. After mixing to insure proper dissolution of the EDTA, approximately 2.5 ml of the whole blood was removed and mixed with 0.25 ml of ^99mTc-peptide. The mixture was allowed to incubate 30 minutes at room temperature. After 30 minutes, aliquots of 0.1 ml were injected into the tail vein of the mice. The amount of radioactivity in the circulation for ^99mTc-IKVAV-containing peptide pre-incubated in whole blood was higher than in animals receiving ^99mTc-IKVAV-containing peptide without incubation in blood.
# [5] = system: platelets; assay: In vitro binding of 99mTc-YIGSR-containing peptide to platelets; assay type: cell-based, human; details: 90 minutes, approximately 10^7 platelets, 2 to 200 µg of radiolabelled peptide
# Procedure: (§1) In other experiments, the peptide of Example 12, labelled as in Example 13, was used for in vitro binding studies. In these studies, the ^99mTc-YIGSR-containing peptide was incubated for 90 minutes with either 0.5 ml of whole blood clots, using from 0.4 to 50 µg of radiolabelled peptide, or with approximately 10^7 platelets, using from 2 to 200 µg of radiolabelled peptide.
# [6] = system: thromboembolism; assay: Diagnostic imaging of thrombosis in a patient (gamma scintigraphy or SPECT); assay type: in vivo; details: kit of Examples 12, 18, 19, or 20, i.v., imaged at 30 minute intervals
# Procedure: A kit of Examples 12, 18, 19, or 20 is used in to localise thromboembolism in a patient. After radiolabelling with ^99mTc as in Example 13, the ^99mTc-YIGSR-peptide is injected intravenously. Starting immediately upon injection, the patient is imaged, using conventional gamma scintigraphy or SPECT imaging, and is imaged at 30 minute intervals thereafter.
# [7] = Biodistribution of 99mTc-YIGSR-peptide after tail vein injection; assay type: in vivo, adult female Swiss-Webster mice; details: biodistribution studies
# Procedure: The biodistribution of the ^99mTc-YIGSR-peptide of Example 12 was evaluated in adult female Swiss-Webster mice (approximately 19 g) at selected times (10, 30, and 120 minutes) after injection into the tail vein. Each experimental group was composed of at least five animals, with each animal receiving 0.1 ml containing 5 µg of peptide (1 µCi/µg). Animals were sacrificed by Halothane overdose, and selected organs dissected, weighed, and associated radioactivity determined. Data were analysed using a computer program specifically designed for ^99mTc-labelled preparations. The percent dose per organ for blood, bone, and muscle were calculated assuming 7, 8.2, and 40% of total body weight, respectively, for these tissues.
# [8] = Biodistribution after pre-incubation of 99mTc-YIGSR-peptide in whole human blood; assay type: in vivo, mice; details: pre-incubated 30 minutes in whole human blood, compared with no incubation in blood
# Procedure: Some studies involved pre-incubation of the ^99mTc-YIGSR-peptide in whole blood prior to injection and determination of biodistribution (Table 7). In these studies, whole human blood was obtained from a healthy adult donor and collected into Vacutainer tubes containing EDTA. After mixing to insure proper dissolution of the EDTA, approximately 2.5 ml of the whole blood was removed and mixed with 0.25 ml of ^99mTc-YIGSR-peptide. The mixture was allowed to incubate 30 minutes at room temperature. After 30 minutes, aliquots of 0.1 ml were injected into the tail vein of the mice. The amount of radioactivity in the circulation for ^99mTc-YIGSR-peptide of Example 12 pre-incubated in whole blood was similar to that in animals receiving ^99mTc-YIGSR-peptide without incubation in blood.
# [9] = system: whole blood clots; assay: In vitro binding of 99mTc-YIGSR-containing peptide to whole blood clots; assay type: cell-based, human; details: 90 minutes, 0.5 ml of whole blood clots, 0.4 to 50 µg of radiolabelled peptide
# Procedure: as §1
# [10] = Clearance rates of 99mTc-YIGSR-peptide (plasma, urine, bile; cannulated animals); assay type: in vivo, adult female Sprague-Dawley rats
# Procedure: The clearance rates of the ^99mTc-YIGSR-peptide of Example 12 was evaluated in adult female Sprague-Dawley rats at 2 hours after injection. Each experimental group was composed of three animals. Each animal was anaesthetised with ketamine and the bile duct and bladder were cannulated. Blood was collected over various periods of time from the jugular vein. […] In biodistribution studies, the highest amount of radioactivity was found in the kidneys, and is consistent with the rat clearance data. No major accumulation of radioactivity was found in any organ examined (other than kidney), and at later times (2 and 4 hours post injection) no re-distribution of the radiolabel was noted.
Substance,relative localisation in the lungs [1],bile clearance [2],clearance rate from the plasma [2],injected dose cleared through urine [2],particles under a phase contrast microscope [3],amount of radioactivity in the circulation [4],lung uptake [4],binding to platelets [5],appearance of sites of thromboembolism by scintigraphy [6],organ with the highest amount of radioactivity [7],amount of radioactivity in the circulation [8],binding to whole blood clots [9],bile clearance ([10]; at two hours),injected doses cleared through urine ([10]; at two hours),clearance rate from the plasma ([10]; rats)
CSRARKQAASIKVAVSADR [^99mTc-IKVAV-containing peptide],decreased,0.9 ± 0.3%,2.4 mL/min,10.8 ± 4.9%,No particles were visible,higher,significantly decreased,,,,,,,,
H-CDPGYIGSR [^99mTc-YIGSR-peptide],,,,,,,,dose-response relationship,photon-rich image locations,kidneys,similar,dose-response relationship,6.9 ± 0.3%,31.2 ± 9.1%,2.6 mL/min
